# Values joined by “and” are separate entries in the source; they are usually repeats but may differ in a detail not shown here. Identical values can stand only once.
# B1: Antigen B subunit 3 (AgB3), synthetic (natural protein)
# chain: DDDDEVTKTKKGVMKAISEIKHFFQSDPLGKKLVEVMKDVASVCEMVRKKARMALKEYVRKLVKEDE
# B2: Antigen B subunit 4 (AgB4), synthetic (natural protein)
# chain: KAEPERCKCLIMRKLGEIRDFFRSDPLGQKLAALGRDLTAICQKLQLKVHEVLKKYVKDLLEEEDEDDLK
# Legend:
# [1] = target: Antigen B subunit 1 (AgB1), synthetic (Echinococcus granulosus); test: cross-linking; subunits with a 10-fold or a 100-fold excess of EDC; SDS-PAGE under reducing conditions; western immunoblotting with WSH serum
# [2] = target: Antigen B subunit 1 (AgB1), synthetic (Echinococcus granulosus); test: cross-linking; each single subunit with a 100-fold molar excess of EDC; SDS-PAGE in reducing and nonreducing conditions; bands digested in situ, LC-MS/MS, cross-linked peptides identified with StavroX
# [3] = target: Antigen B subunit 2 (AgB2), synthetic (Echinococcus granulosus); test: SEC; single synthetic subunits; 50 mM sodium phosphate, 150 mM NaCl, pH 7.4; AKTA Explorer 10; size by calibration with standard proteins (apparent molecular weight)
# [4] = target: the molecule itself; test: as above
molecule,measurement,setting,value
"Antigen B subunit 1 (AgB1), synthetic (natural protein)",stoichiometry N,[1],3 and 4 and 5
same,stoichiometry N,[2],2 and 3 and 4
"Antigen B subunit 2 (AgB2), synthetic (natural protein)",stoichiometry N,[3],6.8 units
B1,stoichiometry N,[4],6.6 units
B2,stoichiometry N,[4],6

# Source: paper PMC5905600, “Structural and Immunodiagnostic Characterization of Synthetic Antigen B Subunits From Echinococcus granulosus and Their Evaluation as Target Antigens for Cyst Viability Assessment” (Clinical Infectious Diseases: An Official Publication of …, 2017)
